Three molecules from patent US20250109201A1 (AGENUS, published 2025) can be followed below.

Experiment [1] concerns the target T1, ECD-His tagged human ILT2 haplotype PE01 (human, UniProt Q8NHL6 24-458).
T1 construct: also called Human ILT2 PE01 ECD; LILRB1/ILT2 PE01; not shown: His tag
Briefly: SPR, captured antibody, ILT2 ECD-His analyte. The protocol: (§1) The binding affinity of anti-ILT2 antibody variants with IgG1 N297A constant regions to ECD-His tagged human ILT2 haplotypes PE01, PE02, PE03 (see Table 1) was assessed by surface plasmon resonance (SPR).
(§2) Briefly, SPR experiments were performed using a Biacore T200 instrument, and the association rate (Kₐ), dissociation rate (Kd), and dissociation constant (KD) were calculated from each experiment using a 1:1 binding model with Biacore™ T200 Evaluation Software. Capture of antibodies from the Human Fab Capture kit (28958325, GE Healthcare) to the Series S CM5 sensor chip (29149603, GE Healthcare) was performed using the immobilization wizard for amine coupling from the Biacore™ control panel and following the manufacturer's recommendations included with the kit.
(§3) Approximately 3 μg/mL of tested anti-ILT2 antibodies and controls diluted in a running buffer (10 mM HEPES, 150 mM NaCl, 3 mM EDTA, and 0.05% surfactant P20) were captured in individual flow cells of previously prepared anti Human Fab CM5 chip, keeping a single flow cell as a reference. Antibodies were captured using a 30 sec injection at a flow rate of 10 μL/min to reach about 150 resonance units (Rus). Human ILT2 ECD PE01 (diluted in the running buffer at the concentration of 30, 10, 3.3, 1.11, 0.37, 0.12 nM), and human ILT2 ECD PE02 and PE03 (diluted in the running buffer at the concentration of 33.3, 11.1, 3.7, 1.2, 0.41, 0.14 nM), were flowed over the chip surface at a flow rate of 30 μL/min with a 3-min association phase and a 10-min dissociation phase. The sensor chip was regenerated between cycles with a double 30-sec injection of 10 mM glycine, pH 2.1 at 30 μL/min followed by stabilization period of 60s. Sensorgrams were evaluated and fit to a simple Langmuir 1:1 interaction model using the global data analysis option of BIAevaluation 3.1 software. Data quality was verified by visually inspecting deviations and curve fitting, and by evaluating the parameters of Rₘₐₓ, Chi2, and Tc.
Background: Surface plasmon resonance follows binding to a sensor surface in real time, without labels.

Experiment [2] addresses T2, ECD-His tagged human ILT2 haplotype PE02 (human, UniProt Q8NHL6 24-458).
T2 construct: also called Human ILT2 PE02 ECD; not shown: His tag
Briefly: SPR, captured antibody, ILT2 ECD-His analyte. The procedure: as §1, §2, §3

Experiment [3] has as its target T3, ECD-His tagged human ILT2 haplotype PE03 (human, UniProt Q8NHL6 24-458).
T3 construct: also called Human ILT2 PE03 ECD (Sino biological, 16014-H08H); not shown: His tag
The experiment can be described thus: SPR, captured antibody, ILT2 ECD-His analyte. The protocol:
as §1, §2, §3

Experiment [4] addresses T4, human ILT2 extracellular and transmembrane domains expressed on CHO cells (human, UniProt Q8NHL6 24-482, limits assumed).
T4 construct: domain: extracellular and transmembrane domains; which one is told under assay; also called CHO cells expressing human ILT2 (relatively low or relatively high level); CHO-ILT2 cells
The experiment can be described thus: flow cytometry, CHO cells with low human ILT2. The protocol: For the antibody binding assay, the cells were seeded in a 96-well U-bottom tissue culture plate at a density of 3×10⁵ cells per well in 25 μL of PBS supplemented with 0.5% BSA, 1 mM EDTA and 0.05% sodium azide (FACS Buffer). The cells were incubated for 30 minutes at 4° C. with 25 μL of a series dilution of anti-ILT2 antibodies or isotype control, at final concentrations ranging from 10 μg/mL to 0.2 ng/mL in FACS Buffer.
After a 30-minute incubation in the dark at 4° C., the cells were washed twice with cold FACS Buffer, and the cells were analyzed by flow cytometry (BD LSR Fortessa Flow Cytometer). CHO cells were identified using a plot of forward scatter-area (FSC-A) versus side scatter area (SSC-A) and another plot of FSC-A versus forward scatter-height (FSC-H) for selection of single cells. Samples were analyzed by sequentially gating on the single cell population and plotting histograms representing the fluorescence in the PE channel. For each sample, mean fluorescence intensity (MFI) was calculated, and the data were plotted by GraphPad Prism software.
Background: Flow cytometry measures light scatter and fluorescence of single cells or particles in a stream.

For experiment [5], the target named is T5, full-length ILT2 expressed on Jurkat cells (human, UniProt Q8NHL6 24-650).
T5 construct: whole, on cells; The Jurkat line also carries FcgRIIIa and an NFAT-luciferase reporter (Promega/G7102); also called Jurkat cells expressing human ILT2; ILT2-expressing Jurkat reporter cells
Briefly: flow cytometry, Jurkat cells expressing human ILT2.

Experiment [6] deals with T6, recombinant human LILRA2/ILT1 (R&D Systems 9040-T4-050) (human, UniProt Q8N149 24-449).
T6 construct: Bought
Briefly: SPR. The source says:
(§4) Irrelevant antibody VRC01 IgG1 N297A was used as a negative isotype control.

For experiment [7], the target named is T7, recombinant human LILRA4/ILT7 (Sino Biological 16058-H08H-50) (human, UniProt P59901 24-446).
T7 construct: Bought
The experiment can be described thus: SPR.
Excerpt: as §4

Experiment [8] deals with T8, recombinant human LILRA5/ILT11 (Sino Biological 16059-H08H-100) (human, UniProt A6NI73 42-268).
T8 construct: Bought
The experiment can be described thus: SPR.
Excerpt: as §4

The target of experiment [9] is T9, recombinant human LILRA6/ILT8 (Sino Biological 29813-H08H-50) (human, UniProt Q6PI73 24-447).
T9 construct: Bought
The experiment can be described thus: SPR.
Excerpt: as §4

Experiment [10] concerns the target T10, recombinant human LILRB3/ILT5 (R&D Systems 9159-T5-050) (human, UniProt O75022 24-443).
T10 construct: Bought
The experiment can be described thus: SPR.
Excerpt: as §4

Experiment [11] addresses T11, recombinant human LILRB4/ILT3 (Sino Biological 16742-H08H) (human, UniProt Q8NHJ6 22-259).
T11 construct: Bought
The experiment can be described thus: SPR.
Excerpt: as §4

The target in experiment [12] is T12, recombinant human LILRB5/LIR-8 (Sino Biological 17221-H08H-100) (human, UniProt O75023 24-458).
T12 construct: Bought
Briefly: SPR.
Excerpt: as §4

Experiment [13] deals with T5, full-length ILT2 expressed on Jurkat …. The experiment can be described thus: cell-based or functional assay.
The target in experiment [14] is T1, ECD-His tagged human ILT2 haplotype PE01. Briefly: SPR, LILRA and LILRB family panel.
Excerpt: as §4

For experiment [15], the target named is T13, recombinant human LILRA1/LIR-6 (Sino Biological 17220-H08H-100) (human, UniProt O75019 17-461).
T13 construct: Bought
Briefly: SPR, LILRA and LILRB family panel.
Excerpt: as §4

Experiment [16] concerns the target T14, recombinant human LILRA3/ILT6 (Sino Biological 13549-H08H-100) (human, UniProt Q8N6C8 24-439).
T14 construct: Bought
Briefly: SPR, LILRA and LILRB family panel.
Excerpt: as §4

Experiment [17] has as its target T4, human ILT2 extracellular and …. Briefly: flow cytometry, CHO cells with low human ILT2. The protocol:
(§5) CHO cells expressing relatively high and low levels of human ILT2 were seeded in a 96-well U-bottom tissue culture plate at a density of 2×10⁵ cells per well in 50 μL of PBS supplemented with 0.5% BSA, 1 mM EDTA and 0.05% sodium azide (FACS Buffer). The cells were incubated for 30 minutes at 4° C. with 50 μL of a series dilution of anti-ILT2 antibodies or isotype control (VRC01 IgG₄) at concentrations from 10 μg/mL to 0.2 ng/mL in FACS Buffer.
(§6) For antibody staining, the cells were washed three times with cold FACS Buffer and resuspended in FACS Buffer containing a FITC-conjugated mouse anti-human IgG₄ antibody (Southern Biotech/9190-02) at a final concentration of […]. After a 30-minute incubation in the dark at 4° C., the cells were washed three times and analyzed as above.
This is another data set of the same source.

For experiment [18] the target is unchanged. Briefly: flow cytometry, CHO cells with high human ILT2. The procedure:
as §5, §6

T5 sequence (Q8NHL6 24-650): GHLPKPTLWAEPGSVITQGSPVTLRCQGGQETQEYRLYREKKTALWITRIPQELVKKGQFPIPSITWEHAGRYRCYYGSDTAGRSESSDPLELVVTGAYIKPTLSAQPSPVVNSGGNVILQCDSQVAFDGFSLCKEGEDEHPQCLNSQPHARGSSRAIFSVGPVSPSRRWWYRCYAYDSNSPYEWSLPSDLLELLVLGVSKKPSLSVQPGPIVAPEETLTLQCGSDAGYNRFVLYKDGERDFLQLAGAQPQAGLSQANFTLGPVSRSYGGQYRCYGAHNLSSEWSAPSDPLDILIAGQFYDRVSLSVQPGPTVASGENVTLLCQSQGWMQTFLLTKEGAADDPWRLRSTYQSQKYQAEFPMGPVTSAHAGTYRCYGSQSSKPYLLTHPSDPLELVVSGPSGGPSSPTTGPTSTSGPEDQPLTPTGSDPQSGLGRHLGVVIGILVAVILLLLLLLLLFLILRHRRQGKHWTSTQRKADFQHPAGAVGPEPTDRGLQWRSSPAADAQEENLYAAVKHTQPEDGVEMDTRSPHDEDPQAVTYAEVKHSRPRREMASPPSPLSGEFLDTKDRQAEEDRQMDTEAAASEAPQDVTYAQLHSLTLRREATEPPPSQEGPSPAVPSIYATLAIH
T2 sequence (Q8NHL6 other isoform, or with tags, fused parts or gaps): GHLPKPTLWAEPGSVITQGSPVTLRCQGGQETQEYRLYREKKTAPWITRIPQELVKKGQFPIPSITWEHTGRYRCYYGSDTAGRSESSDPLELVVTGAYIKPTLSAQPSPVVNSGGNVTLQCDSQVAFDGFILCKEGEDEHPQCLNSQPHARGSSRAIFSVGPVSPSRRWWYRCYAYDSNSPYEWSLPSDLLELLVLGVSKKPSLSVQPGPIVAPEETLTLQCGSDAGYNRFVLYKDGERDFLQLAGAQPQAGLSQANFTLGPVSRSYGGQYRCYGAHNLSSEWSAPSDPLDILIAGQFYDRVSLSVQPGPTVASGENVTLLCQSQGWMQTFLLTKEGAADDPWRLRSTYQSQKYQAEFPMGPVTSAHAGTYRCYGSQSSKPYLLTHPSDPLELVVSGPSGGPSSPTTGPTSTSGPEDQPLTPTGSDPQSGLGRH
T3 sequence (Q8NHL6 other isoform, or with tags, fused parts or gaps): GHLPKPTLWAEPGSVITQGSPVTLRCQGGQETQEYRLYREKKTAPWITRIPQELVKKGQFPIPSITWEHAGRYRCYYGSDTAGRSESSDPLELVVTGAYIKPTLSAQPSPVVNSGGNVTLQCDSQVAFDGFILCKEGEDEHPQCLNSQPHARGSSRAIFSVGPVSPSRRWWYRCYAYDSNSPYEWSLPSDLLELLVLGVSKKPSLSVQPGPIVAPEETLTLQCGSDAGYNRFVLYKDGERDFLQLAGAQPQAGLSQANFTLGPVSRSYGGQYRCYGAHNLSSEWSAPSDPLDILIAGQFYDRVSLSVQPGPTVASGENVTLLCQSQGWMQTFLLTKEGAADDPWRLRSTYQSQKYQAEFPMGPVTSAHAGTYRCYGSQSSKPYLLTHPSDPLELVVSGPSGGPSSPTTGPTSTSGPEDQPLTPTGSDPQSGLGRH
T4 sequence (Q8NHL6 24-482 limits assumed): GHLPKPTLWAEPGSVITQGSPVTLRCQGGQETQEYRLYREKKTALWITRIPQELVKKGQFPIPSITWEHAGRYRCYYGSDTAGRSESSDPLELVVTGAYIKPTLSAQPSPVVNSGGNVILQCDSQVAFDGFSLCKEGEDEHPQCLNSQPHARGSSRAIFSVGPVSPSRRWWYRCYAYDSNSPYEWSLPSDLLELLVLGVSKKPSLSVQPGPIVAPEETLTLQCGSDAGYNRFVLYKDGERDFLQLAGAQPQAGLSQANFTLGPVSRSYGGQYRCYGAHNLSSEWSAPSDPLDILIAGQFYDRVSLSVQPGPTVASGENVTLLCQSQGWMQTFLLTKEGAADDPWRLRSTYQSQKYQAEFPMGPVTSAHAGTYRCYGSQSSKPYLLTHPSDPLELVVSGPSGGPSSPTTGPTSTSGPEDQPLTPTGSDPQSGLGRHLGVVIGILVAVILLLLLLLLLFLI
T1 sequence (Q8NHL6 24-458): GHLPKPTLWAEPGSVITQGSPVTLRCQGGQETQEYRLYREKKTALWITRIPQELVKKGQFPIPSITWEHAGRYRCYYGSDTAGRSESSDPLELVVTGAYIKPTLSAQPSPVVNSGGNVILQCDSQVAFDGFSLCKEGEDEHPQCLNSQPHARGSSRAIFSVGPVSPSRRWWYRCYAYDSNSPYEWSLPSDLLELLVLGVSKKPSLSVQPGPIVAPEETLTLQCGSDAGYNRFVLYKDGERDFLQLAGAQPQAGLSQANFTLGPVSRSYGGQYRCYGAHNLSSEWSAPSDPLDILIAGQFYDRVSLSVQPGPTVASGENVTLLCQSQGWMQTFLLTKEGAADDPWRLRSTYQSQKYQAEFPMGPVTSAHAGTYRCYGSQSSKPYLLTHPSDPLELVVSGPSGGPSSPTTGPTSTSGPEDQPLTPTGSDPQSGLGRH
T12 sequence (O75023 24-458 limits assumed): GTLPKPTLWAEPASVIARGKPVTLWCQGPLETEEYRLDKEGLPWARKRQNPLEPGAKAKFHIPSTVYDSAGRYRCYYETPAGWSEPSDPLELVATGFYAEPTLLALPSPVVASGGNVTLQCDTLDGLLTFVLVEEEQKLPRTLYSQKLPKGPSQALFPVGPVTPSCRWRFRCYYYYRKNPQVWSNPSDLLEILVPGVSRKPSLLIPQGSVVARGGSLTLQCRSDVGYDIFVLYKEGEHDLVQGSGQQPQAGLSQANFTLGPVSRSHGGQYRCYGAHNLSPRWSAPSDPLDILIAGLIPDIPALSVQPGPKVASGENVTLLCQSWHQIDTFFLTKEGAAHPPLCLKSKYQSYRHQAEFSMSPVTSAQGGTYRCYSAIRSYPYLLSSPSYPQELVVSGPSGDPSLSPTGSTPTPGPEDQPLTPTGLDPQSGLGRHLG
T8 sequence (A6NI73 42-268 limits assumed): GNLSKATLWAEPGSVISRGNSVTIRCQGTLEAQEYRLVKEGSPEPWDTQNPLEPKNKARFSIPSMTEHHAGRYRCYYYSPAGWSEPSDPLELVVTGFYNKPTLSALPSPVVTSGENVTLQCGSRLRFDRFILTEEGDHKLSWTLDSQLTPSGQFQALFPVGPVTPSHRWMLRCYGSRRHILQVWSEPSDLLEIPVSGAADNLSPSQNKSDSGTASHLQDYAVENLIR
T6 sequence (Q8N149 24-449 limits assumed): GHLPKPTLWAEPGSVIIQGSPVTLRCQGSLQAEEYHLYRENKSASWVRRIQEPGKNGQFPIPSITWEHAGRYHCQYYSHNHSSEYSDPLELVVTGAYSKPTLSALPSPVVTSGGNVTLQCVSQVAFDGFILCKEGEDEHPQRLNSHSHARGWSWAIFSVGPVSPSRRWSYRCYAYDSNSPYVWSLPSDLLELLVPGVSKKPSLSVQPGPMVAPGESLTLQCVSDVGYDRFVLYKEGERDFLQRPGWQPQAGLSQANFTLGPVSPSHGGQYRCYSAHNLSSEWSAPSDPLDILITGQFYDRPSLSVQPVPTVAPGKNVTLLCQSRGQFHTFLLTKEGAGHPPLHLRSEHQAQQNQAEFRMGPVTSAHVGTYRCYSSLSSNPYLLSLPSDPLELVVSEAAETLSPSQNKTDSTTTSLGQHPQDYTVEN
T7 sequence (P59901 24-446 limits assumed): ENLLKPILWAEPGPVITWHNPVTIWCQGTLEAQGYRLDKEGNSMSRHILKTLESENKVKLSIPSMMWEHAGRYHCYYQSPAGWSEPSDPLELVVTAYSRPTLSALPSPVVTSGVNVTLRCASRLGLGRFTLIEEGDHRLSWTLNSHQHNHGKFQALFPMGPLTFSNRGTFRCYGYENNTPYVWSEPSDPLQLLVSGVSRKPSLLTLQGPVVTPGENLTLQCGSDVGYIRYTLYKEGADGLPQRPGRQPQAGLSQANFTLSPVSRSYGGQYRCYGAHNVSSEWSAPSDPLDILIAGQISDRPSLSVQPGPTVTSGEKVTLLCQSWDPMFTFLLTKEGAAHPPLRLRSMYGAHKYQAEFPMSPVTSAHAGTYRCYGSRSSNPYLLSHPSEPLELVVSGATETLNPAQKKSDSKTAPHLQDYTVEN
T14 sequence (Q8N6C8 24-439 limits assumed): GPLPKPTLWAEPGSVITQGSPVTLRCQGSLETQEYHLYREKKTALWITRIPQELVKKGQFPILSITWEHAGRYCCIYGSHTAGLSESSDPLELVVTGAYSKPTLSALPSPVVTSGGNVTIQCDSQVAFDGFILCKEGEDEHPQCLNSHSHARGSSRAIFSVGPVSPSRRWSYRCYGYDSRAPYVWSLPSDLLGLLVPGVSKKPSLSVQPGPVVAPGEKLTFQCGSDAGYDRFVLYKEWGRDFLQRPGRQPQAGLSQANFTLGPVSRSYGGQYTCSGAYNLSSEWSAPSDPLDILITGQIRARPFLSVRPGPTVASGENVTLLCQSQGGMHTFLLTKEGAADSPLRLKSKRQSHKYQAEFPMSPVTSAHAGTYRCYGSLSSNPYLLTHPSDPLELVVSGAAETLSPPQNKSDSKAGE
T13 sequence (O75019 17-461 limits assumed): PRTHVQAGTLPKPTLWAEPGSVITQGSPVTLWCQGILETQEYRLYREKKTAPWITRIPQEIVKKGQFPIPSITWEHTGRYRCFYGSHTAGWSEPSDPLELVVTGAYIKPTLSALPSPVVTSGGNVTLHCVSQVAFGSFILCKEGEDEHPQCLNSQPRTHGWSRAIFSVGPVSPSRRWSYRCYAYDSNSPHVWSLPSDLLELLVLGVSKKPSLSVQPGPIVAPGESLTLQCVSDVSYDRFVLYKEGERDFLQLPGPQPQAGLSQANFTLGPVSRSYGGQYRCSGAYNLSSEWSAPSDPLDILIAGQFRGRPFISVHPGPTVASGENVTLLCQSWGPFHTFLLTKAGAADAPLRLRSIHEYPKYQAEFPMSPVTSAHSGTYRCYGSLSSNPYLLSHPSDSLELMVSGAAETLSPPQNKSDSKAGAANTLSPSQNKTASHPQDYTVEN
T9 sequence (Q6PI73 24-447 limits assumed): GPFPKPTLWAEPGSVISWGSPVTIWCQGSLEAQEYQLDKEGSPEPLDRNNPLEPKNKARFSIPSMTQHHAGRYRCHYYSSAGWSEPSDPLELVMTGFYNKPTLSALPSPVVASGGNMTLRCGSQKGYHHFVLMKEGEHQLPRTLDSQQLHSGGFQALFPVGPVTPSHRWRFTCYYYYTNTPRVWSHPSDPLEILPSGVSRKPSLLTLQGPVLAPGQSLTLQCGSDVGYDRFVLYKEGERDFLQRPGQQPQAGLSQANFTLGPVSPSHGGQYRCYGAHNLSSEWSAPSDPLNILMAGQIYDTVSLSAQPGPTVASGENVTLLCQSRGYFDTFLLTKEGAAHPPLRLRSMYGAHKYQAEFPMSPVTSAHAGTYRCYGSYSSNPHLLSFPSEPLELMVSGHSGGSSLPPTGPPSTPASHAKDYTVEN

B1: BA213 (antibody, human IgG1, kappa, N297A, V domains shown)
VH: QVQLVQSGAEVKKPGASVKVSCKASGYTFNRYYMHWVRQAPGQGLEWMGWINPYTGGTNYAQKFQGRVTMTRDTSISTAYMELSRLRSDDTAVYYCASKQPSSDYWGQGTLVTVSS
VL: not shown
Regarding B1, in [1], the Kd turned out to be 0.033 nM, the koff amounted to 1.1e-05 s⁻¹ and the kon turned out to be 320000 M⁻¹ s⁻¹. In experiment [2], the Kd stood at 0.63 nM, the off-rate (koff) was 0.00015 s⁻¹ and the on-rate constant (kon) came out at 230000 M⁻¹ s⁻¹. Further, in experiment [3], the Kd came to 0.149 nM, the koff stood at 7.5e-05 s⁻¹ and the kon is 500000 M⁻¹ s⁻¹. In experiment [4], this molecule gave an AUC of 13600 and a 50% effective concentration (EC50) of 0.175 µg/mL. In experiment [5], the AUC amounted to 189000 and the 50% effective concentration (EC50) is 0.11 µg/mL.

B2: BA216 (antibody, human IgG1, kappa, N297A, V domains shown)
VH: B1 VH
VL: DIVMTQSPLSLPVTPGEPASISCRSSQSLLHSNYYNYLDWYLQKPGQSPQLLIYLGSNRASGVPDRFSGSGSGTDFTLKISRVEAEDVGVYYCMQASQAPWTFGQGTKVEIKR
B2: the results for the Kd in experiment [1], in experiment [2] and in experiment [3] were 0.185 nM, 0.617 nM and 0.317 nM, respectively. In addition, the koff is 6.7e-05 s⁻¹ in [1], 0.00014 s⁻¹ in experiment [2] and 8.5e-05 s⁻¹ in experiment [3]. In addition, the values for the on-rate (kon) in experiment [1], in experiment [2] and in experiment [3] were 360000 M⁻¹ s⁻¹, 230000 M⁻¹ s⁻¹ and 270000 M⁻¹ s⁻¹, respectively. The figures for the AUC in experiment [4] and in experiment [5] were 14400 and 199000, respectively. The half-maximal effective concentration (EC50) worked out at 0.078 µg/mL in [4] and 0.07 µg/mL in [5].

B3: 15G8 (Reference antibody) (antibody, V domains shown)
VH: DVQLQGSGPGLVKPSETLSLTCSVTGYSITSGYYWNWIRQFPGKKLEWMGYISYDGSNNYNPSLKNRITISRDTSKNQFSLKLNSVTAADTATYYCAHGYSYYYAMDAWGQGTSVTVSS
VL: DIQMTQSPSSLSASVGDRVTITCRTSQDISNYLNWYQQKPGKAVKLLISYTSRLHSGVPSRFSGSGSGTDYTLTISSLQPEDFATYYCQQGNTLPTFGQGTKLEIK
For B3, the binding result in experiment [6], in [7], in [8], in experiment [9], in experiment [10] and in experiment [11] was “no binding” in each case. Also, the binding result in experiment [12] is recorded as “no binding”. Moreover, in experiment [13], the “FcγRIIIa-NFAT luciferase signaling, EC50” value came out at 0.43 µg/mL. The equilibrium dissociation constant (Kd) in [14] was found to be 10 nM; in experiment [15] it was 21 nM; in experiment [16] it was 24 nM. Moreover, the figures for the concentration for a half-maximal effect (EC50) in [17] and in experiment [18] were 0.019 µg/mL and 0.155 µg/mL, respectively.

A word on the Kd: it is the equilibrium constant for the complex coming apart. Usually koff stands for the first-order rate constant of dissociation. Low values mean slow dissociation, high ones fast dissociation. As a reminder, the kon is a measure of how fast the partners come together. Lower therefore signals slower complex formation. By EC50 is commonly meant the concentration needed to bring the measured effect to its halfway point.
